The target of assay [1] is T1, recombinant human TNFα (human, UniProt P01375 77-233, 125I label in the receptor-blocking assay).
T1 construct: also called huTNFα; tumor necrosis factor alpha
In words: inhibition of 125I-TNFα binding to plate-coated p55-sf2. As to the method: 50:1 of p55-sf2 at 0.5 :g/ml in PBS was added to Optiplates to coat the wells during a one-hour incubation at 37° C. Serial dilutions of the eight TNV cell supernatants were prepared in 96-well round-bottom plates using PBS/0.1% BSA as diluent. […] The mixture was preincubated for one hour at RT. […] After 2 hrs at RT, Optiplates were washed three times with PBS-Tween. 100 :l of Microscint-20 was added and the cpm bound determined using the TopCount gamma counter.
The concentrations of the TNV mAbs in their respective cell supernatants were first determined by standard ELISA analysis for human IgG.

Assay [2] has as its target T1, recombinant human TNFα. In words: cell-based or functional assay.
The target of assay [3] is T1, recombinant human TNFα. Put plainly: competition radioligand assay: hybridoma supernatant preincubated with 125I-TNFα (5 ng/ml); binding of TNFα to plate-coated p55-sf2 read as cpm bound.

B1: GenTNV148.26.12 (antibody, V domains shown)
VH: QVQLVESGGGVVQPGRSLRLSCAASGFIFSSYAMHWVRQAPGNGLEWVAFMSYDGSNKKYADSVKGRFTISRDNPKNTLYLQMNSLRAEDTAVYYCARDRGIAAGGNYYYYGMDVWGQGTTVTVSS
VL: EIVLTQSPATLSLSPGERATLSCRASQSVYSYLAWYQQKPGQAPRLLIYDASNRATGIPARFSGSGSGTDFTLTISSLEPEDFAVYYCQQRSNWPPFTFGPGTKVDIKR
For the molecule B1, the “fold better at blocking TNF binding than TNV118 and TNV14” value in assay [1] is about 4 fold. In assay [2], the “neutralizing TNFα bioactivity” value was 4 fold. In addition, the “IC50 (read off the curve)” value in assay [3] is about 4 ng/mL.

B2: GenTNV86.14.34 (antibody, human IgG1, V domains shown)
VH: B1 VH
VL: EIVLTQSPATLSLSPGERATLSCRASQSVYSYLAWYQQKPGQAPRLLIYDASNRATGIPARFSGSGSGTDFTLTISSLEPEDFAVYYCQQRSNWPPFTFGPGTKVDIK
notes: Totally human IgG1 kappa, hybridoma-derived, tested in cell supernatant; Variable regions identical to TNV148; also called C417A (cell line code)
With B2, in assay [1], the “fold better at blocking TNF binding than TNV118 and TNV14” value was about 4 fold.

The values above are taken from patent US20210340245A1 (Janssen / Centocor, published 2021).
